This is an account of results in paper PMC9544338.

Holding throughout (test): co-IP; N2a cells cotransfected with His6-RGS19 and Gαo-GFP (C-terminally tagged) variants, treated with 1 μM ZPT for 3 hours before IP of Gαo with a nanobody against GFP; Western blot; fold against DMSO-treated cells
Experiment [1] deals with Gαo[E246K]-GFP (C-terminally tagged) (human), P09471. Conditions: remark: other sources report otherwise.
Experiment [2] has as its target Gαo[G203R]-GFP (C-terminally tagged) (human), P09471.
The target of experiment [3] is Gαo[R209C]-GFP (C-terminally tagged) (human), P09471. The note with it: remark: other sources report otherwise.

B1: His6-RGS19, P49795 1-217 (other documents disagree on this pair)
chain: MPTPHEAEKQITGPEEADRPPSMSSHDTASPAAPSRNPCCLCWCCCCSCSWNQERRRAWQASRESKLQPLPSCEVCATPSPEEVQSWAQSFDKLMHSPAGRSVFRAFLRTEYSEENMLFWLACEELKAEANQHVVDEKARLIYEDYVSILSPKEVSLDSRVREGINKKMQEPSAHTFDDAQLQIYTLMHRDSYPRFLSSPTYRALLLQGPSQSSSEA
As to B1, the fold increase of the interaction by ZPT over DMSO was determined as 12 fold in experiment [1], 20 fold in experiment [2] and 6 fold in experiment [3].
